Measurements as given in article PMC7645262.

Molecular target: Bpa78-βarr1 with a 2xStrep tag at the C-terminus (bovine) (UniProt P17870)
Experiment: cross-linking; Bpa78-βarr1-2xStrep in HEK293T cells irradiated with UV (365 nm) as intact cells, then isolated with Strep-Tactin XT (1 M NaCl, 1 M urea in the supernatant); product analysed by SDS-PAGE/blot, SEC (Superdex 200 Increase, 4°C, Buffer W), MALDI-TOF-MS and nano-HPLC/nano-ESI-Orbitrap-MS/MS

- stoichiometry N: 2
Substance: Bpa78-βarr1 with a 2xStrep tag at the C-terminus (from UniProt P17870 1-418) (natural protein)
